# How the values were obtained:
# [1] = molecular target: Recombinant C3d (human C3 residues 974-1265, C1010A, with N-terminal G-S-R-S-T) (human) (UniProt P01024); assay: ITC (Example 3, FIG. 17), Efb titrated into recombinant C3d
# [2] = molecular target: Recombinant C3d (human C3 residues 974-1265, C1010A, with N-terminal G-S-R-S-T) (human) (UniProt P01024); assay: isothermal titration calorimetry, Efb titrated into recombinant C3d
# [3] = molecular target: Recombinant C3d (human C3 residues 974-1265, C1010A, with N-terminal G-S-R-S-T) (human) (UniProt P01024); assay: ITC at 25 C, Efb titrated into recombinant C3d, single-site model
# [4] = molecular target: Recombinant C3d (human C3 residues 974-1265, C1010A, with N-terminal G-S-R-S-T) (human) (UniProt P01024); assay: ITC at 25 C, Efb titrated into recombinant C3d
# [5] = molecular target: Recombinant C3d (human C3 residues 974-1265, C1010A, with N-terminal G-S-R-S-T) (human) (UniProt P01024); assay: isothermal titration calorimetry, Ehp titrated into recombinant C3d; first site
# [6] = molecular target: Recombinant C3d (human C3 residues 974-1265, C1010A, with N-terminal G-S-R-S-T) (human) (UniProt P01024); assay: isothermal titration calorimetry, Ehp titrated into recombinant C3d; first site of a model with two non-equivalent sites
# [7] = molecular target: Recombinant C3d (human C3 residues 974-1265, C1010A, with N-terminal G-S-R-S-T) (human) (UniProt P01024); assay: ITC, model of two non-equivalent sites
# [8] = molecular target: Recombinant C3d (human C3 residues 974-1265, C1010A, with N-terminal G-S-R-S-T) (human) (UniProt P01024); assay: isothermal titration calorimetry, Ehp titrated into recombinant C3d; second site
# [9] = molecular target: Recombinant C3d (human C3 residues 974-1265, C1010A, with N-terminal G-S-R-S-T) (human) (UniProt P01024); assay: ITC, Ehp titrated into recombinant C3d, model of two non-equivalent sites, first site
# [10] = molecular target: Recombinant C3d (human C3 residues 974-1265, C1010A, with N-terminal G-S-R-S-T) (human) (UniProt P01024); assay: ITC, Ehp titrated into recombinant C3d, model of two non-equivalent sites, second site
# [11] = molecular target: Recombinant C3d (human C3 residues 974-1265, C1010A, with N-terminal G-S-R-S-T) (human) (UniProt P01024); assay: isothermal titration calorimetry, Ehp titrated into recombinant C3d; second site of a model with two non-equivalent sites
# [12] = molecular target: Recombinant C3d (human C3 residues 974-1265, C1010A, with N-terminal G-S-R-S-T) (human) (UniProt P01024); assay: ITC at 25 C, Efb-C titrated into recombinant C3d, single-site model
# [13] = molecular target: Recombinant C3d (human C3 residues 974-1265, C1010A, with N-terminal G-S-R-S-T) (human) (UniProt P01024); assay: isothermal titration calorimetry, Efb-C titrated into recombinant C3d
# [14] = molecular target: Recombinant C3d (human C3 residues 974-1265, C1010A, with N-terminal G-S-R-S-T) (human) (UniProt P01024); assay: ITC at 25 C, Efb-C titrated into recombinant C3d
# [15] = molecular target: Recombinant C3d (human C3 residues 974-1265, C1010A, with N-terminal G-S-R-S-T) (human) (UniProt P01024); assay: ITC (Example 3, FIG. 17), Efb-C titrated into recombinant C3d
# Recombinant C3d (human C3 residues 974-1265, C1010A, with N-terminal G-S-R-S-T) (human), sequence (P01024 other isoform, or with tags, fused parts or gaps C1010A C1010A limits assumed, form in doubt): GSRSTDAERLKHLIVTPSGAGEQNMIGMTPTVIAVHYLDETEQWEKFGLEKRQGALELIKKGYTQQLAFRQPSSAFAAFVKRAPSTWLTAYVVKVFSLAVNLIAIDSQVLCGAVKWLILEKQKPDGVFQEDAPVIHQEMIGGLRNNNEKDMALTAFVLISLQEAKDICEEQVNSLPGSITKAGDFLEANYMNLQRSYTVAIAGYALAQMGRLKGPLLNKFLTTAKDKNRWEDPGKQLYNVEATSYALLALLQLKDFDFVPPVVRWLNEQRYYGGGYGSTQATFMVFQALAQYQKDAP
substance,measurement,setting,value
"Extracellular fibrinogen-binding protein (Efb), recombinant full-length, S. aureus strain Mu50 (from UniProt P0C6P2 29-165)",Kd,[1],2 nM
same,Kd,[2],4 nM
same,N,[2],1
same,ΔH,[2],-9.1 kcal/mol
same,Kd,[3],2 nM
same,enthalpy of binding (ΔH),[4],-9 kcal/mol
"SAV1155/Ehp (Efb Homologous Protein), recombinant mature form, S. aureus strain Mu50",N,[5],0.5
same,ΔH,[5],-21.1 kcal/mol
same,Kd,[6],0.2 nM
same,change in ΔG between the first and second sites,[7],3 kcal/mol
same,unfavorable change in enthalpy release between the first and second sites,[7],27 kcal/mol
same,N,[8],0.5
same,ΔH,[8],5.7 kcal/mol
same,Kd,[9],0.2 nM
same,Kd,[10],33 nM
same,Kd,[11],33 nM
"Efb-C, C-terminal C3-binding domain of Efb from S. aureus strain Mu50 (from UniProt P0C6P2 94-165)",Kd,[12],2 nM
same,N,[13],1
same,enthalpy of binding (ΔH),[14],-8.5 kcal/mol
same,Kd,[15],2 nM

# — US20110046075A1
